Assay results from publication PMC5565510 (Journal of molecular biology, 2017).
Numbering of substitutions follows the chain as printed.

T1: Sulfolobus islandicus PilT N-terminal-domain-containing ATPase (SisPINA), untagged (Sulfolobus islandicus REY15A, UniProt F0NID4 1-505)
T1 sequence (looked up): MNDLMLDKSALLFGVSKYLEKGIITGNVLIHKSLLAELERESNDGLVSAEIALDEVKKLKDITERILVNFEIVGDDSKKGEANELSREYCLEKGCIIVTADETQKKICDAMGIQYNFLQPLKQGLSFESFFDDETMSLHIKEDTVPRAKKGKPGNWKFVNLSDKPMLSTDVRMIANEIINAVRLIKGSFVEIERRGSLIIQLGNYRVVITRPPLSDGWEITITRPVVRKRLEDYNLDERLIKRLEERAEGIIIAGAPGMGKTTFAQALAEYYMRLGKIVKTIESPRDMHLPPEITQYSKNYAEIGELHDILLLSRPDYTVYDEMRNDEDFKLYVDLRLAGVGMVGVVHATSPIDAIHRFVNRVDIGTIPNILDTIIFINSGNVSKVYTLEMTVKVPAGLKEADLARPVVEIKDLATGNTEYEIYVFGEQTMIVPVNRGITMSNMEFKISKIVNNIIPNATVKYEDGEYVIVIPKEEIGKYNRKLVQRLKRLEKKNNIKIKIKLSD

B1: N-terminal His-tagged SisHjc (enzyme, Sulfolobus islandicus REY15A, UniProt F0NID3 1-143, looked up)
chain: MNAKKRKGSAVERNIVGKLRDKGFAVVRAPASGSKRKDPIPDIIALKSGVIILIEMKSRKDKEGKIYVRREQAEGIMEFARKSGGTLFLGVKKPGVLKFIPFDKLRRTETGNYVADSEIEGLDLEDLVRLVEAKVSKTLDNFL
B2: SisPINAK261A, Walker A mutant of SisPINA (enzyme, Sulfolobus islandicus REY15A, UniProt F0NID4 1-505, looked up)
chain: T1 sequence (looked up) with K261A

Experiments:
[1] = biological target: T1, Sulfolobus islandicus PilT …; assay: pull-down
crystal structure = biological target: the molecule itself; assay: crystal structure

Row | Binder | binding result [1] | stoichiometry N (crystal structure)
1 | B1 | binds | 
2 | B2 |  | 6
